# Source: PMC9298051, “A phytobacterial TIR domain effector manipulates NAD^+ to promote virulence” (The New Phytologist, 2021)
# Tests used:
# [1] = biological target: T1, AbTIR (Acinetobacter baumannii, UniProt A0A009IHW8); assay: HPLC of reaction products; format: biochemical; conditions: product v-cADPR
# T1 construct: gene J512_3302; His-tagged recombinant AbTIR-His
# [2] = tested on: NC(=O)c1ccc[n+]([C@@H]2O[C@H](COP(=O)(O)OP(=O)(O)OC[C@H]3O[C@@H](n4cnc5c(N)ncnc54)[C@H](O)[C@@H]3O)[C@@H](O)[C@H]2O)c1; assay: purified protein; conditions: room temperature, 60 min, 1–600 μM NAD+
# T1 sequence (A0A009IHW8 whole entry): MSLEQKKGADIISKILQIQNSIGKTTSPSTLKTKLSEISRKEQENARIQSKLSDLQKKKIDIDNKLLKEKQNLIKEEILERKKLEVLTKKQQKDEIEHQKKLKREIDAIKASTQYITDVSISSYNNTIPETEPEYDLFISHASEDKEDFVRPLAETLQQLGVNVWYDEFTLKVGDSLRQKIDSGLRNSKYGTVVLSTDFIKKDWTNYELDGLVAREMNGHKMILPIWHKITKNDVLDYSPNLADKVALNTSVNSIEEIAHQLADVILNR
Molecule,HPLC of reaction products [1],Km [2],kcat [2]
NC(=O)c1ccc[n+]([C@@H]2O[C@H](COP(=O)(O)OP(=O)(O)OC[C@H]3O[C@@H](n4cnc5c(N)ncnc54)[C@H](O)[C@@H]3O)[C@@H](O)[C@H]2O)c1 [NAD^+],NAD^+ hydrolase reactions were conducted with purified HopAM1 and AbTIR,,
HopAM1 (Pseudomonas syringae pv. tomato str. DC3000),,174.8 µM,0.00933 s⁻¹
